Data on 31 sequences can be found in the supplement of paper PMC9170038.

The subject of the series is MS2 coat protein. As to the kind of experiment: apparent KD of MS2 coat protein; designed switch direction (-1 OFF switch, 1 ON switch): -1; higher = weaker reporter binding. Summed up:
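For each design, the apparent KD is the median over clusters of curves fitted to normalised cluster fluorescence. Clusters held RNA switches with common flanks, transcribed on Illumina chips by stalled E. coli RNA polymerase. These were titrated with SNAP-549-labelled MS2 coat protein, doubling from 0.7 or 1.5 nM to 3 µM, without input, with 200 uM small-molecule ligand, or with an oligonucleotide input.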

Setting [1] is: input ligand: microRNA oligo, concentration not stated.
Where [2] appears, read: Eterna round: R95, input ligand: FMN 200 uM.
The mark [3] stands for this setting: Eterna round: R95, input ligand: microRNA oligo, concentration not stated.
[4] abbreviates: Eterna round: R95, input ligand: none.

“AUGGGUACUUUCGGAGCGACAUGAGGAUCACCCAUGUAUAUUGAGGAUAUCCACUGCUAAGGACGGGAGAAGGCAGUGUACUGU [Ex NG3 #82] (Eterna round: R96, puzzle: Exclusion NG 3)”: the “apparent KD of MS2 coat protein” value (input ligand: FMN 200 uM) came to 73.3 nM, the “apparent KD of MS2 coat protein” value under setting [1] came out at 42.9 nM and the “apparent KD of MS2 coat protein” value (input ligand: none) was found to be 54.2 nM.

For “AUGGUACAUGAGGAUCACCCAUGUUAGGAUAUCGCGUGUUCUAAAACUAAGAGACACACGAGAAGGGACGACAU (puzzle: Exclusion 1)”, the “apparent KD of MS2 coat protein” value turned out to be 51.5 nM under setting [2], 67.8 nM under setting [3] and 71.4 nM under setting [4].

Take “AUGUCGGCAGGAUAUACAUGAGGAUCACCCAUGUAAAUUUUUCGUUUAACUUGAAUGUGUAGAAGGGCCAUGAA [Ex3 #68] (Eterna round: R97, puzzle: Exclusion 3)”: the “apparent KD of MS2 coat protein” value (input ligand: FMN 200 uM) was 30.9 nM and the “apparent KD of MS2 coat protein” value (input ligand: none) was determined as 33 nM.

Regarding “AUUAAAACAUAGGAUAUCGAAUUUAUCAUUUAACGAGAAGGAUGAACAUGAGGAUCACCCAUGUGGUAUCAUGG [Mat - Exclusion 6 - JL Mod - D6] (puzzle: Exclusion 6)”, the “apparent KD of MS2 coat protein” value under setting [3] was determined as 165 nM.

Consider “AUUAUACAUGUAGGAUAUCUGCACGUGUAGUGCAGAGAAGGACAUGAGGAUCACCCAUGUAGAUCAAUAAUAAUUAAUUUAAUU [ENG1/6-B3] (Eterna round: R96, puzzle: Exclusion NG 1)”, for which the “apparent KD of MS2 coat protein” value (input ligand: FMN 200 uM) was 184 nM, the “apparent KD of MS2 coat protein” value under setting [1] turned out to be 96.8 nM and the “apparent KD of MS2 coat protein” value (input ligand: none) stood at 104 nM.

In the case of “AUUAUAUAGCAAGGAUAUAGAAUAUUAUUUUAACAUGAGGAUCACCCAUGUAACCUUAUGUGUAGCUAGAAGGUGCAUUUAUUA [Title] (Eterna round: R96, puzzle: Exclusion NG 2)”, the “apparent KD of MS2 coat protein” value under setting [1] amounted to 64.1 nM.

With “AUUCCUCCUGUUAGGAUAUGCAUCGGGCUUCCGCAGCAGAAGGAACAUGAGGAUCACCCAUGUCAAAUAAAAUC (Eterna round: R97, puzzle: Brourd's mod of Exclusion 4)”, the “apparent KD of MS2 coat protein” value reads like this: (input ligand: FMN 200 uM) 231 nM; (input ligand: none) 30.2 nM.

Consider “AUUGAUAGCACAGGAUAUUGAGAUUUGAAUUGACAAGAAGGGUGUACAUGAGGAUCACCCAUGUAAUGGGAGAGUGGUUGAUUA [JR_ExcNG1_Sub002] (Eterna round: R96, puzzle: Exclusion NG 1)”, for which the “apparent KD of MS2 coat protein” value (input ligand: FMN 200 uM) amounted to 365 nM, the “apparent KD of MS2 coat protein” value under setting [1] was determined as 324 nM and the “apparent KD of MS2 coat protein” value (input ligand: none) turned out to be 582 nM.

As for “AUUGUAGUUGUGAGGAUAUCGUUGAUUUUUUGAAACGAGAAGGCACAUGAGGAUCACCCAUGUAAGUUGUAGGU [JR_BMOE4_Sub055] (puzzle: Brourd's mod of Exclusion 4)”, the “apparent KD of MS2 coat protein” value under setting [3] was 77.6 nM.

On to “AUUGUAUGAUACCUCUAAUACAUGAGGAUCACCCAUGUUAUCGAGGAUAUGCAGAAUAGAUUAGAGCAGAAGGCGAAGUAAUAU [JR_ExcNG3_Sub025] (Eterna round: R96, puzzle: Exclusion NG 3)”, for which the “apparent KD of MS2 coat protein” value is 15 nM (input ligand: FMN 200 uM), 9.08 nM under setting [1] and 13.6 nM (input ligand: none).

Turning to “AUUGUUUAUGUAGGAUAUGCCUGGCGUGCCUUCGCAGAAGGACAUGAGGAUCACCCAUGUAUUGCGGUCUGCGUUCAGAUCGCU [salish99_ExNG1_r4_025] (Eterna round: R96, puzzle: Exclusion NG 1)”, the “apparent KD of MS2 coat protein” value is, setting by setting: (input ligand: FMN 200 uM) 75 nM; under setting [1], 30.6 nM; (input ligand: none) 55.4 nM.

“AUUGUUUAUGUAGGAUAUGCCUGGCGUGCCUUUGCAGAAGGACAUGAGGAUCACCCAUGUAACAUGAGGCUCACCCAUGUCGCA [salish99_ExNG1_r04_113] (Eterna round: R96, puzzle: Exclusion NG 1)”: the “apparent KD of MS2 coat protein” value (input ligand: FMN 200 uM) was found to be 481 nM, the “apparent KD of MS2 coat protein” value under setting [1] worked out at 255 nM and the “apparent KD of MS2 coat protein” value (input ligand: none) worked out at 429 nM.

Take “AUUUAAUUUAGCGAGAUCACAUGAGGAUCACCCAUGUAUAUAUAGGAUAUCAGCUCGUGUAGAGCUGAGAAGGAUAUAUACCGC [ExNG3/7-A3] (Eterna round: R96, puzzle: Exclusion NG 3)”: the “apparent KD of MS2 coat protein” value reads like this: (input ligand: FMN 200 uM) 108 nM; under setting [1], 72.5 nM; (input ligand: none) 88.1 nM.

Consider “AUUUAGUCAGGAUAUACAUGAGGAUCACCCAUGUAAACUUUUAGUUUAAUUUGAAUGUGUAGAAGGGACAUUUA [Ex3 #46] (Eterna round: R97, puzzle: Exclusion 3)”, for which the “apparent KD of MS2 coat protein” value runs as follows: (input ligand: FMN 200 uM) 26 nM; (input ligand: none) 28 nM.

As for “AUUUAGUGAGGAUAUGUGGCUUCGAUCGUGAGAUCGAGGCUACAGAAGGCACAUGAGGAUCACCCAUGUUCCUG [salish99_ex4_r4_113] (Eterna round: R97, puzzle: Exclusion 4)”, the “apparent KD of MS2 coat protein” value turned out to be 75.7 nM (input ligand: FMN 200 uM) and 17.5 nM (input ligand: none).

Consider “AUUUUAUUCUGAGGAUAUUGAUUAAUCCUCUCACAUGAGGAUCACCCAUGUUUCCGUGUUUACCGCAAGAAGGCAGUUUUGUAU [JR_ExcNG2_Sub025] (Eterna round: R96, puzzle: Exclusion NG 2)”, for which the “apparent KD of MS2 coat protein” value reads like this: (input ligand: FMN 200 uM) 41.4 nM; under setting [1], 35.2 nM; (input ligand: none) 41 nM.

Turning to “AUUUUGUCAGGAUAUGAGUAGUAGGACGAAAGUGUUAUUAUUUAGAAGGGACAUGAGGAUCACCCAUGUUCCUC [Bring Us a Shrubbery-03] (Eterna round: R96, puzzle: Exclusion 4)”, the “apparent KD of MS2 coat protein” value (input ligand: FMN 200 uM) is 13.9 nM, the “apparent KD of MS2 coat protein” value under setting [1] turned out to be 10.7 nM and the “apparent KD of MS2 coat protein” value (input ligand: none) was determined as 13.7 nM.

Consider “AUUUUGUCAGGAUAUGAGUAGUAGGACGAAAGUGUUAUUAUUUAGAAGGGACAUGAGGAUCACCCAUGUUCCUC [Bring Us a Shrubbery-03] (puzzle: Exclusion 4)”, for which, under setting [3], the “apparent KD of MS2 coat protein” value came out at 12.1 nM.

Turning to “AUUUUGUCAGGAUAUGAUUAGUAGGACGAGAGUGCUACUACUUAGAAGGGACAUGAGGAUCACCCAUGUAUUCC [Bring Us a Shrubbery-08] (puzzle: Exclusion 4)”, the “apparent KD of MS2 coat protein” value under setting [3] worked out at 15 nM.

On to “CAAAAGCUAGGAUAUACAUGAGGAUCACCCAUGUAUAGGUGGGCAGUUCUUAUCAAACGUAGAAGGAGCAUAAA [Uslaisan] (puzzle: Exclusion 3)”, for which the “apparent KD of MS2 coat protein” value is 39.2 nM under setting [2], 17.5 nM under setting [3] and 16.6 nM under setting [4].

Regarding “CAACAACGAGGAUAUACAUGAGGAUCACCCAUGUAAGAAAAGACAUAAACCGCCUGGUGUAGAAGGCGUAAAAC [Xeonesar] (Eterna round: R97, puzzle: Exclusion 3)”, the “apparent KD of MS2 coat protein” value is, setting by setting: (input ligand: FMN 200 uM) 25.2 nM; (input ligand: none) 38.2 nM.

As for “CAACCACAUGAGGAUCACCCAUGUGAGGAUAUGAUACUAUGUACUUCGGUACAUAGUAUCAGAAGGCACAGGUG [Ex1-3: 60] (puzzle: Exclusion 1)”, the “apparent KD of MS2 coat protein” value under setting [3] is 83.2 nM.

For the sequence “CAACCUCACAACCGUUAAAACAUGAGGAUCACCCAUGUGCCAUAACGGCGCAUGAUCGAGCUAGGCCCGUCCAUGCA [Razaxe] (Eterna round: R96, puzzle: Sensor v2, turn-off variant)”, the “apparent KD of MS2 coat protein” value stood at 23.2 nM (input ligand: FMN 200 uM), 18.8 nM under setting [1] and 26.1 nM (input ligand: none).

With “CAACUGUGAGGAUAUGGUGAGUAGUGCCUGAGCGCUGCUCACCAGAAGGCACAUGAGGAUCACCCAUGUAUAAC [Mat - Exclusion 4 - Mod of JL - D4] (puzzle: Exclusion 4)”, under setting [3], the “apparent KD of MS2 coat protein” value came out at 35.6 nM.

On to “CAAGAUUACUGAGGAUAUCCUAGUUUAUCUCAGGGAGAAGGCGGACUCAACAUGAGGAUCACCCAUGUAAGACGGGUACUAGAG [Ex NG1 #15] (Eterna round: R96, puzzle: Exclusion NG 1)”, for which the “apparent KD of MS2 coat protein” value by setting is: (input ligand: FMN 200 uM) 84.8 nM; under setting [1], 68.4 nM; (input ligand: none) 43.2 nM.

Take “CAAGCUUUUCCAUUUCUAUACAUGAGGAUCACCCAUGUCCCGAGUUGGGUGAGCACUCUGGUCGUCGUUUCUACCAA [Envele] (Eterna round: R96, puzzle: Sensor v2, turn-off variant)”: the “apparent KD of MS2 coat protein” value by setting is: (input ligand: FMN 200 uM) 432 nM; under setting [1], 181 nM; (input ligand: none) 278 nM.

For the sequence “CAAUACAAGCGAAGAUCCUACAUGAGGAUCACCCAUGUGCUCGUCUUAAAAGGUACUGUGACGAAAGUCACGGUACC [Eli 87 + Mat D67 4] (Eterna round: R97, puzzle: Sensor, turn-off variant 1)”, the “apparent KD of MS2 coat protein” value worked out at 282 nM (input ligand: FMN 200 uM) and 296 nM (input ligand: none).

For “CAAUAUUAUCGAGGAUAUCCUAUUGUAUUUCAGGGAGAAGGCGGACUCAACAUGAGGAUCACCCAUGUAAGACGGGUACUAGAU [Ex NG1 #19] (Eterna round: R96, puzzle: Exclusion NG 1)”, the “apparent KD of MS2 coat protein” value (input ligand: FMN 200 uM) was found to be 92.2 nM, the “apparent KD of MS2 coat protein” value under setting [1] came to 69.8 nM and the “apparent KD of MS2 coat protein” value (input ligand: none) was found to be 89.7 nM.

In the case of “CACCAGAGAGGAUAUGCACUCAUGGCACCGAAAGGGAGGCGACAUGAGGAUCACCCAUGUAGAAGGCUCAGCAG [Eternabot (Original) Solution 16] (Eterna round: R97, puzzle: Exclusion 2)”, the “apparent KD of MS2 coat protein” value is, setting by setting: (input ligand: FMN 200 uM) 153 nM; (input ligand: none) 70.6 nM.

In the case of “CACCGUUACAUAGGAUAUGUUACAUGAGGAUCACCCAUGUAAUAAAUGAGAAUUUCGAAUGUAAUACAGAAGGAUGGAAUCGGC [Ostracism 71 - Jieux - Exclusion NG 2] (Eterna round: R96, puzzle: Exclusion NG 2)”, the “apparent KD of MS2 coat protein” value is 28.7 nM (input ligand: FMN 200 uM), 16.6 nM under setting [1] and 17.7 nM (input ligand: none).

Regarding “CACGUACAGCAAGGAUAUCCAAAUGUUGAGCAUGGCCUAUCCAUACAUGAGGAUCACCCAUGUUCGGAGAAGGUGCAUGUAUCU [Enteinte] (Eterna round: R96, puzzle: Exclusion NG 2)”, the “apparent KD of MS2 coat protein” value by setting is: (input ligand: FMN 200 uM) 11.2 nM; under setting [1], 9.96 nM; (input ligand: none) 12.8 nM.
